# Reference: the supplement of paper PMC9233669
# Variants at the floor of the assay were thinned out.
# Legend:
# biotinyl-Met-oxazolone = assay: self-aminoacylation, catalytic enhancement (BMO) (fold over background); higher = more active; k-Seq, kA / k0A0; sequences stand for … in GGGAAUGGAUCCACAUCUACGAAUUC…UUCACUGCAGACUUGACGAAGCUG
# How it was run: (§1)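 Mutagenized RNA pools (0.43 μM; 21-nt variable region) were treated with 2–1250 μM of each biotinyl-aminoacyl-oxazolone. Conditions were 50 μL HEPES/NaCl/KCl/MgCl2/CaCl2 buffer, 5% acetonitrile, pH 6.9–7.0, room temperature, 90 minutes. Catalytic enhancement, the median kA relative to the uncatalyzed rate, was derived from streptavidin capture, qPCR and Illumina sequencing.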
# biotinyl-Leu-oxazolone = assay: self-aminoacylation, catalytic enhancement (BLO) (fold over background); higher = more active; k-Seq, kA / k0A0; sequences stand for … in GGGAAUGGAUCCACAUCUACGAAUUC…UUCACUGCAGACUUGACGAAGCUG
# How it was run: as §1
# biotinyl-Trp-oxazolone = assay: self-aminoacylation, catalytic enhancement (BWO) (fold over background); higher = more active; k-Seq, kA / k0A0; sequences stand for … in GGGAAUGGAUCCACAUCUACGAAUUC…UUCACUGCAGACUUGACGAAGCUG
# How it was run: as §1
# biotinyl-Ile-oxazolone = assay: self-aminoacylation, catalytic enhancement (BIO) (fold over background); higher = more active; k-Seq, kA / k0A0; sequences stand for … in GGGAAUGGAUCCACAUCUACGAAUUC…UUCACUGCAGACUUGACGAAGCUG
# How it was run: as §1
# biotinyl-Val-oxazolone = assay: self-aminoacylation, catalytic enhancement (BVO) (fold over background); higher = more active; k-Seq, kA / k0A0; sequences stand for … in GGGAAUGGAUCCACAUCUACGAAUUC…UUCACUGCAGACUUGACGAAGCUG
# How it was run: as §1
# biotinyl-Phe-oxazolone = assay: self-aminoacylation, catalytic enhancement (BFO) (fold over background); higher = more active; k-Seq, kA / k0A0; sequences stand for … in GGGAAUGGAUCCACAUCUACGAAUUC…UUCACUGCAGACUUGACGAAGCUG
# How it was run: as §1
Sequence,self-aminoacylation (biotinyl-Met-oxazolone),self-aminoacylation (biotinyl-Leu-oxazolone),self-aminoacylation (biotinyl-Trp-oxazolone),self-aminoacylation (biotinyl-Ile-oxazolone),self-aminoacylation (biotinyl-Val-oxazolone),self-aminoacylation (biotinyl-Phe-oxazolone)
AGUCACCUAGGUCCUCGGGUG [Fam2.2 aminoacylation ribozyme variant],6.34,6.54,9.19,5.66,4.64,37.5
AGUCACCUAGUUCAUCGGGUG [Fam2.2 aminoacylation ribozyme variant],4.14,4.05,5.16,3.71,3.29,24
AGUCACCUCGGUCAUCGGGUG [Fam2.2 aminoacylation ribozyme variant],6.27,6.23,7.18,4.47,4.18,44.4
AGUCAGCUAGGUCAUCGGGUG [Fam2.2 aminoacylation ribozyme variant],5.84,6.1,9.92,5.42,5.51,58.2
AGUCAUCUAGGUCAUCGGGUG [Fam2.2 aminoacylation ribozyme variant],7.32,7.92,9.27,5.24,5.47,53.9
AGUCCCCUGGUCAUCGAGUGA [Fam2.1 aminoacylation ribozyme variant],6.67,6.55,7.41,3.3,4.13,42.6
AGUGACCUAGGUCAUCGGGUG [Fam2.2 aminoacylation ribozyme variant],3.53,4.73,4.64,3.48,3.69,25.7
AGUUACCUAGGUCAUCGGGUG [Fam2.2 aminoacylation ribozyme variant],5.38,6.47,6.91,4.59,4.62,40.1
AUAACCCUGGCCAUCGAGUGA [Fam2.1 aminoacylation ribozyme variant],4.48,2.71,3.57,3.35,2.09,11.4
AUAACCCUGGUCAACGAGUGA [Fam2.1 aminoacylation ribozyme variant],6.45,5.91,6.89,3.32,3.33,31.1
AUAACCCUGGUCAUCGAGAGA [Fam2.1 aminoacylation ribozyme variant],0.604,0.822,0.804,1.01,0.839,1.12
AUAACCCUGGUCAUCGAGGGA [Fam2.1 aminoacylation ribozyme variant],1.45,2.12,0.626,1.52,1.43,2.14
AUAACCCUGGUCAUCGAGUCA [Fam2.1 aminoacylation ribozyme variant],0.958,0.781,0.624,0.774,0.806,0.721
AUAACCCUGGUCAUCGAGUGU [Fam2.1 aminoacylation ribozyme variant],20,17.9,16.4,6.98,7.4,69.6
AUAACCCUGGUCUUCGAGUGA [Fam2.1 aminoacylation ribozyme variant],5.08,5.23,6.89,2.9,2.71,17.7
AUAACGCUGGUCAUCGAGUGA [Fam2.1 aminoacylation ribozyme variant],4.6,4.06,5.24,3.06,2.76,15
AUACACCGAGGUCAUCGGGUG [Fam2.2 aminoacylation ribozyme variant],5.37,4.55,4.15,4.24,4.34,28.8
AUACACCUAGCUCAUCGGGUG [Fam2.2 aminoacylation ribozyme variant],2.23,1.91,1.24,1.9,2.21,4.61
AUACACCUAGGUAAUCGGGUG [Fam2.2 aminoacylation ribozyme variant],2.84,2.07,3.83,1.93,2.18,12.3
AUACACCUAGGUCACCGGGUG [Fam2.2 aminoacylation ribozyme variant],3.09,3.78,3.79,3.29,3.23,23.3
AUACACCUAGGUUAUCGGGUG [Fam2.2 aminoacylation ribozyme variant],3.19,2.99,4.77,2.73,2.95,19.1
AUACACUUCAAGCAAUCGGUC [Fam1B.1 aminoacylation ribozyme variant],0.804,0.979,5.86,1.05,0.96,9.74
AUACCUCAAACAAUCGGUCUG [Fam1A.1 aminoacylation ribozyme variant],0.919,0.934,1.52,0.977,0.92,4.92
AUACUCCUAGGUCAUCGGGUG [Fam2.2 aminoacylation ribozyme variant],3.69,5.38,3.91,2.97,2.98,27.5
AUACUUCAAACAAUCCGUCUG [Fam1A.1 aminoacylation ribozyme variant],1.05,1.09,1.17,1.04,0.918,1.42
AUACUUCAAACAAUCGGUGUG [Fam1A.1 aminoacylation ribozyme variant],1.22,1.25,2.68,1.05,0.94,3.81

Sequence,self-aminoacylation (biotinyl-Met-oxazolone),self-aminoacylation (biotinyl-Leu-oxazolone),self-aminoacylation (biotinyl-Trp-oxazolone),self-aminoacylation (biotinyl-Ile-oxazolone),self-aminoacylation (biotinyl-Val-oxazolone),self-aminoacylation (biotinyl-Phe-oxazolone)
AUACUUCAAACAAUUGGUCUG [Fam1A.1 aminoacylation ribozyme variant],0.903,0.956,1.16,1.19,1.04,1.16
AUACUUCAAACAGUCGGUCUG [Fam1A.1 aminoacylation ribozyme variant],0.965,0.996,0.831,0.876,0.699,0.584
AUACUUCAUACAAUCGGUCUG [Fam1A.1 aminoacylation ribozyme variant],0.981,0.874,0.952,1.02,0.939,1.1
AUAUUUCAAACAAUCGGUCUG [Fam1A.1 aminoacylation ribozyme variant],0.844,0.891,3.15,0.897,0.834,5.45
AUAUUUGCUAAUAGUCGCAAG [Fam3.1 aminoacylation ribozyme variant],1.35,1.37,1.75,1.57,1.49,2.04
AUCACCCAGGUCAUCGAGUGA [Fam2.1 aminoacylation ribozyme variant],7.75,8.69,8.46,4.04,4.61,30.4
AUCACCCUAGUCAUCGAGUGA [Fam2.1 aminoacylation ribozyme variant],8.04,8.78,7.4,4.35,4.27,49.7
AUCACCCUCGUCAUCGAGUGA [Fam2.1 aminoacylation ribozyme variant],3.54,3.13,3.31,2.12,2.36,19.7
AUCACCCUGGGCAUCGAGUGA [Fam2.1 aminoacylation ribozyme variant],10.6,13.1,11.2,4.64,5.3,69.7
AUCACCCUGGUCAUCGAGUAA [Fam2.1 aminoacylation ribozyme variant],3.93,3.44,2.89,2,2.21,6.38
AUCACCCUGGUCAUCGAGUGA [Fam2.1 aminoacylation ribozyme variant],27.8,27,28.4,10.6,11.3,154
AUCACCCUGGUCAUCGAGUGU [Fam2.1 aminoacylation ribozyme variant],22.5,21.5,20.2,7.23,8.64,94.9
AUCACCCUGGUCAUCGGGUGA [Fam2.1 aminoacylation ribozyme variant],9.05,9.48,14.1,5.17,5.27,33.4
AUCACCCUGGUCAUCGUGUGA [Fam2.1 aminoacylation ribozyme variant],3.98,5.08,4.97,1.81,2.31,34.7
AUCACCCUGGUCAUCUAGUGA [Fam2.1 aminoacylation ribozyme variant],12.8,11.7,12.9,5.3,5.63,85
AUCACCCUGGUCCUCGAGUGA [Fam2.1 aminoacylation ribozyme variant],6.62,8.29,7.28,4.01,4.54,51.6
AUCACCCUGGUCGUCGAGUGA [Fam2.1 aminoacylation ribozyme variant],1.39,2.67,1.41,1.24,1.31,5.78
AUCACCCUGGUCUUCGAGUGA [Fam2.1 aminoacylation ribozyme variant],8.01,8.44,9.14,3.81,4.74,50.3
AUCACCCUGGUGAUCGAGUGA [Fam2.1 aminoacylation ribozyme variant],7.25,8.91,8.41,3.57,3.87,54.1
AUCACCCUUGUCAUCGAGUGA [Fam2.1 aminoacylation ribozyme variant],9.48,10.1,10.7,4.65,4.91,59.7
AUCACCUUGGUCAUCGAGUGA [Fam2.1 aminoacylation ribozyme variant],5.76,6.86,7.19,3.39,3.35,5.13
AUCCACCGAGGUCAUCGGGUG [Fam2.2 aminoacylation ribozyme variant],9.91,13.4,7.06,5.2,6.67,125
AUCCACCUAGGCCAUCGGGUG [Fam2.2 aminoacylation ribozyme variant],3.46,5.49,6.22,3.55,4.12,27.4
AUCCACCUAGGUAAUCGGGUG [Fam2.2 aminoacylation ribozyme variant],3.45,4.49,5.34,3,3.1,27.6
AUCCACCUAGGUCAGCGGGUG [Fam2.2 aminoacylation ribozyme variant],3.79,5.2,4.43,3.68,4.02,31.2
